According to paper PMC3587310 (Biochemistry, 2013):

Target: the molecule itself
Experiment: crystal structure

B1: S. elongatus KaiC A422V mutant protein (natural protein, Synechococcus elongatus, UniProt Q79PF4 1-519, looked up)
chain: MTSAEMTSPNNNSEHQAIAKMRTMIEGFDDISHGGLPIGRSTLVSGTSGTGKTLFSIQFLYNGIIEFDEPGVFVTFEETPQDIIKNARSFGWDLAKLVDEGKLFILDASPDPEGQEVVGGFDLSALIERINYAIQKYRARRVSIDSVTSVFQQYDASSVVRRELFRLVARLKQIGATTVMTTERIEEYGPIARYGVEEFVSDNVVILRNVLEGERRRRTLEILKLRGTSHMKGEYPFTITDHGINIFPLGAMRLTQRSSNVRVSSGVVRLDEMCGGGFFKDSIILATGATGTGKTLLVSRFVENACANKERAILFAYEESRAQLLRNAYSWGMDFEEMERQNLLKIVCAYPESAGLEDHLQIIKSEINDFKPARIAIDSLSALARGVSNNAFRQFVIGVTGYAKQEEITGLFTNTSDQFMGVHSITDSHISTITDTIILLQYVEIRGEMSRAINVFKMRGSWHDKAIREFMISDKGPDIKDSFRNFERIISGSPTRITVDEKSELSRIVRGVQEKGPES
modifications: phosphothreonine at T432 in all six subunits; S431 not phosphorylated
In the case of B1, the “stoichiometry N” value is reported as 6.
